Columns and labels:
[1] = system: miR-128-2−/− mice; assay: Survival of miR-128-2-/- mice under anticonvulsant treatment (Kaplan-Meier survival curves); type: in vivo; conditions: sodium valproate 0.26% w/v in drinking water, oral, n=11
[2] = system: Dravet-syndrome mice (Scn1a or Gabrg2 deficient mice); assay: Ectopic miR-128 overexpression in Dravet-syndrome mouse models (Scn1a or Gabrg2 deficient mice); type: in vivo; conditions: supplied into neurons of the hippocampus or thalamus; Dravet-like syndrome mice
From the text: The inventors of the instant disclosure ectopically overexpress miR-128 in mouse models of severe human generalized childhood epilepsy such as the Dravet-syndrome (Scn1a or Gabrg2 deficient mice) to establish the efficacy of miR-128 in averting seizures in these mice. Mice with a loss of Scna1 and Gabrg2 display spontaneous seizures and ataxia beginning in the fourth postnatal week followed by premature death from seizure-related cause. Applicants test the effects of miR-128 overexpression on seizure development and survival in three to four week old Dravet-syndrome mice. The ability of genetic miR-128 overexpression in postnatal forebrain neurons to protect mice against spontaneous seizure development is also tested. Secondly, Applicants test the seizure-suppressing ability of oligonucleotide or AAV-based miR-128 overexpression in different brain regions (striatum, temporal cortex, hippocampus, mediodorsal thalamus) to determine whether there are specific locations that can short-circuit brain-wide seizures due to local miR-128 overexpression. Ectopically supplied miR-128 into the neurons of the hippocam pus or thalamus protects mice suffering from Dravet-like syndrome against spontaneous recurrent seizures and premature death.

[3] = system: primary striatal neuron cultures; assay: Gene expression (TaqMan qRT-PCR) in BDNF-treated primary striatal neuron cultures; type: cell-based, mouse; conditions: 0.05 ng/ul BDNF, day 10 in vitro; 0, 2, 6 and 24 hours
Experimental: Primary striatal neuron cultures obtained from E18 mouse brain were treated on day 10 in vitro with 0.05 ng/ul brain-derived neurotrophic factor (BDNF) in water. RNA from cultures was prepared at 0, 2, 6 and 24 hours after stimulation and gene expression change were analyzed using the Tagman qRT-PCR assay. […] Data are shown as mean, error bars represent s.e.m., p-value was determined by 2-way ANOVA, FosB treatment 0.0014, time <0.0001. 124a treatment 0.1091, time 0.0861, Arpp21 treatment 0.0064, time 0.0190. miR-128-2 treatment 0.0160, time 0.2097.
Relative expression levels of mature miRNAs and mRNAs were measured by TaqMan assays using total extracted RNA from brain samples, according to manufacturer's protocol (Life Technologies, Carlsbad, Calif.). Purified RNA samples were assayed by qRT-PCR for relative gene expression using pre-designed TaqMan gene expression assays from Applied Biosystems (ABI) as recommended by the manufacture. The following pre-designed TaqMan gene expression assays from Applied Biosystems (ABI) were used: miR-128 (Assay ID 002216), sno135 (Assay ID 001230), miR-124a (Assay ID 001182), Fosb Mm00500401_m1, Fosl2 Mm00484442_m1, Arc Mm00479619_g1, JunB Mm04243546_s1, Darpp-32 Mm00454892_m1, Btg2 Mm00476162_m1, Gadd45g Mm01352550_g1, Dusp1 Mm00457274_g1, Nr4a1 Mm01300401_m1, Jun Mm00495062_s1, Actb Mm00607939_s1, Arpp-21 Mm00473630_m1 (exon spanning probe detects exons that are common to all Arpp-21 isoforms), Arpp21 Mm00473645_m1 (exon spanning probe that specifically detects the long TARPP-isoform of Arpp-21). Cycle counts for miRNA quantification were normalized to snoRNA135 or miR-124a as indicated, and cycle counts for mRNA quantification were normalized to Actb or Gapdh. […] Calculation of standard deviation (SDΔCt=(SDtarget2+SDref2)1/2) and error bars (RQ1=2^(−(ΔΔCt+SDΔΔCt)), and RQ2=2^(−(ΔΔCt−SDΔΔCt))) was performed according to ABI technical literature Part Number 4371095 Rev B.

`CCCC(CCC)C(=O)O` [valproic acid] was tested, and the “lethal impact of miR-128 deficiency (lifespan)” value [1] was “prevented”.

With “miR-128: microRNA, UCACAGUGAACCGGUCUCUUU (SEQ ID NO: 1) (listed as RNA, chemistry not fully specified)” the “spontaneous recurrent seizures and premature death” value [2] was “protects”.

B1: BDNF: brain-derived neurotrophic factor, inducer of miR-128 expression (protein, UniProt P23560 19-247, looked up)
Neurotrophic factor BDNF …: APMKEANIRGQGGLAYPGVRTHGTLESVNGPKAGSRGLTSLADTFEHVIEELLDEDQKVRPNEENNKDADLYTSRVMLSSQVPLEPPLLFLLEEYKNYLDAANMSMRVRRHSDPARRGELSVCDSISEWVTAADKKTAVDMSGGTVTVLEKVPVSKGQLKQYFYETKCNPMGYTKEGCRGIDKRHWNSQCRTTQSYVRALTMDSKKRIGWRFIRIDTSCVCTLTIKRGR
In the case of B1, the “expression of immediate early gene FosB” value [3] is reported as “strong but transient inducer”, the “expression of miR-128” value [3] is reported as “stable increase” and the “expression of miR-128 host gene Arpp21” value [3] is reported as “stable increase”. For the same molecule, the “expression of neuron-specific miRNA miR-124a” value [3] was “no effect”.

Source: patent US10087443B2, “Compositions and methods for modulating neuronal excitability and motor behavior” (ICAHN SCHOOL OF MEDICINE AT MOUNT SINAI, priority 2013, dated 2018)
